{
  "source": "patent US7541156B1",
  "about": "“Method of identifying antinociceptive compounds using protease activated receptor-2” (priority 2000, dated 2009)",
  "molecular_target": "T1, PAR-2 (Rattus norvegicus, UniProt Q63645)",
  "T1 construct": "assessing the response of primary neuronal cultures to trypsin and AcPep; endogenous in cells; host or cells: primary cultures of adult Sprague-Dawley rat DRG neurons",
  "T1 sequence (Q63645 26-397)": "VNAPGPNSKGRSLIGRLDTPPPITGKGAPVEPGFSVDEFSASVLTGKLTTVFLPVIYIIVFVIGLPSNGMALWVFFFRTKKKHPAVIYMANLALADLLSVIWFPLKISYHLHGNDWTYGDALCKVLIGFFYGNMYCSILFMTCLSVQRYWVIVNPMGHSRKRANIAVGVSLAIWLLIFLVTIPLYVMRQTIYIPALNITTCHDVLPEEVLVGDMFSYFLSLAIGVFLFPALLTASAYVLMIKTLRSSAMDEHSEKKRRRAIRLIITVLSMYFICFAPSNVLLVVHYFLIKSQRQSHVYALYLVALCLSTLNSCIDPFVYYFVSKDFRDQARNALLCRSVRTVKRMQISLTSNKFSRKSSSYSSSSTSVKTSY",
  "assay": "Intracellular Ca2+ response of primary neuronal cultures",
  "format": "cell-based",
  "conditions": "primary neuronal cultures of adult rat DRGs",
  "from_the_text": "In the results which follow, it is shown that activated proteases can have direct effects on sensory neurons, mediated by specific receptors. PAR-1 and PAR-2 are present in rat DRGs (Young et al. 2000). The presence of one of these receptors, PAR-2, in sensory neurons is first confirmed by finding evidence of mRNA and protein expression in adult rat thoracic DRGs. The functional implications of PAR-2 expression are then examined by assessing the response of primary neuronal cultures to trypsin and AcPep. Both agonists increased intracellular Ca^2+ confirming previously reported findings that a functional PAR 2 receptor is present in adult rat DRGs (Steinhoff et al. 2000). Trypsin stimulates both PAR-1 and PAR-2 and therefore an increase in intracellular Ca^2+ can be caused by activation of the two different receptors. […] Therefore the increased intracellular Ca^2+ response to AcPep reflects specific PAR-2 mediated activation.\nCell Culture. Primary cultures of rat DRG neurons were prepared from male adult Sprague Dawley rats (200-250 gm). Following enzymatic treatment and dissociation, neurons were spun through a percoll cushion (Hofbauer et al. 1998) and were plated at a density of 10,000-20,000 neurons/well of a 48 well tissue culture plate. […]",
  "data": [
    {"substance": "SLIGRL (PEPTIDE (1)..(6) PAR-2 activating peptide; listed as Rattus sp.) [AcPep]", "values": [
      {"measurement": "intracellular Ca2+", "result": "increased"}
    ]}
  ]
}
